Measurements as given in patent US20170137533A1 (published 2017).

Legend:
Experiment in all cases: ForteBio
SC16.39 = molecular target: SC16.39
SC16.51 = molecular target: SC16.51
SC16.46 = molecular target: SC16.46
Chain of SC16.46 (Q9NYJ7 27-492): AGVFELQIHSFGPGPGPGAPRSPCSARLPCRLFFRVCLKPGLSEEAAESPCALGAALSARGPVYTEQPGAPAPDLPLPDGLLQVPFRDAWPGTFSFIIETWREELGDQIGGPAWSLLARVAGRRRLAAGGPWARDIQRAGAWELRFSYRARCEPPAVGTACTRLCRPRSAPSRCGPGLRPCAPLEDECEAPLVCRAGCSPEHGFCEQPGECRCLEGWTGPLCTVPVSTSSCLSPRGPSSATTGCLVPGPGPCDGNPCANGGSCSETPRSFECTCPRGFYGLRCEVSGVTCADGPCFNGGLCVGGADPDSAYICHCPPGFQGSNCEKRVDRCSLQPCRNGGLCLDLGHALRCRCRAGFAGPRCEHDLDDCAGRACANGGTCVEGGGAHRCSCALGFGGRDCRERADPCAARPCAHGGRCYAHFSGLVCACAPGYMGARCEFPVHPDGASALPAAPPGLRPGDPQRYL

Chain of SC16.51 (Q9NYJ7 27-492): as above
Chain of SC16.39 (Q9NYJ7 27-492): as above

B1: DLL3 (ligand)
chain: not shown
- Kd (SC16.39): 1 nM
- Kd (SC16.51): 2 nM
- Kd (SC16.46): 0.5 nM
